Laboratory results published in patent US20060269548A1 (published 2006).

Assays:
human VEGFR-3-Ig = molecular target: T1, human VEGFR-3-Ig (human, UniProt P35916 25-775); experiment: BIAcore 2000 biosensor, receptor-Ig on CM5 chip, ligand injected, 1:1 Langmuir global fit
T1 construct: extracellular domain; also called hVEGFR-3; soluble VEGFR-3; not shown: immunoglobulin fusion part
T1 sequence (looked up): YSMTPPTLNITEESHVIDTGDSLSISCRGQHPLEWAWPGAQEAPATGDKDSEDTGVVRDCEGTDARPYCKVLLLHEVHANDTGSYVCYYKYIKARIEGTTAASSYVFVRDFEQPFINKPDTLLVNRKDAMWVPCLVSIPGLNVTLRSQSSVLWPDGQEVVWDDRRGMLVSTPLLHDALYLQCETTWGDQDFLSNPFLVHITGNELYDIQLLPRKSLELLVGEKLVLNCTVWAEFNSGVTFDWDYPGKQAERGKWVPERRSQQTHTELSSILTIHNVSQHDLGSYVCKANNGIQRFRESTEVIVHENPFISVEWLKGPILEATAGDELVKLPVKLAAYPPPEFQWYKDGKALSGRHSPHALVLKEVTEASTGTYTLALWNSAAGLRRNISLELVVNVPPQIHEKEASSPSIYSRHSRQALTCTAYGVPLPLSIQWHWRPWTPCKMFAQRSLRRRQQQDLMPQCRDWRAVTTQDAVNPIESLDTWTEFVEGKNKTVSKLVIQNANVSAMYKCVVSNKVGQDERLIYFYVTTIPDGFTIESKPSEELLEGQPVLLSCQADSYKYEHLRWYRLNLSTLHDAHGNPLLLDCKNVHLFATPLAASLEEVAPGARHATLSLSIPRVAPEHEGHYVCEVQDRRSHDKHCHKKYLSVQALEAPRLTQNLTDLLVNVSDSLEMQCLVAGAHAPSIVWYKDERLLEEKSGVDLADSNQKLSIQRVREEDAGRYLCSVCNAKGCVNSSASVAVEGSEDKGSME

[1] = molecular target: T2, human VEGFR-2 immunoglobulin fusion protein (chimeric receptor protein immobilized on the biosensor chip) (human, UniProt P35968 20-764, limits assumed); experiment: as above
T2 construct: also called hVEGFR-2; not shown: immunoglobulin fusion part
T2 sequence (P35968 20-764 limits assumed, change not shown): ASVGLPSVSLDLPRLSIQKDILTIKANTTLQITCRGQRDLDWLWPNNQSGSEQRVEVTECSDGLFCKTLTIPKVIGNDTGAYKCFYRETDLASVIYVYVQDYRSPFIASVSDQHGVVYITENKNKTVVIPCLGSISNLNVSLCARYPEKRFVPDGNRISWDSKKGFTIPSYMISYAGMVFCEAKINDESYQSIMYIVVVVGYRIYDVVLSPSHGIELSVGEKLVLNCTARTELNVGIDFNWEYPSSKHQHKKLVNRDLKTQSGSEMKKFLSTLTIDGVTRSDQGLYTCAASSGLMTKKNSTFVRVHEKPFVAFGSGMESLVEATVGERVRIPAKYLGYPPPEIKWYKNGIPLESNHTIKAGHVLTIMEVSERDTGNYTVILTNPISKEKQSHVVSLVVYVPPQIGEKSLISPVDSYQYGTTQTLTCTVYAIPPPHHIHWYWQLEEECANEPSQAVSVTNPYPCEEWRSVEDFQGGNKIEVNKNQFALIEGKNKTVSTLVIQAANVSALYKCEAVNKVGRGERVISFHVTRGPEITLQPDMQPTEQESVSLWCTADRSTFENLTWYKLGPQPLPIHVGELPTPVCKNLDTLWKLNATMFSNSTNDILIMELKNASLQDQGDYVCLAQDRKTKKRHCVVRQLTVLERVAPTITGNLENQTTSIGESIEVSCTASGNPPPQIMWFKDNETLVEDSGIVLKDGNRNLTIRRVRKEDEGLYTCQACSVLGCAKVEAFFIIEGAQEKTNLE

[2] = molecular target: T2, human VEGFR-2 immunoglobulin fusion …; experiment: BIAcore 2000 biosensor, receptor-Ig amine-coupled to CM5 chip, ligand injected

B1: recombinant human VEGF-C (Thr103 to Leu215) (ligand, UniProt P49767 103-215, looked up)
chain: TEETIKFAAAHYNTEILKSIDNEWRKTQCMPREVCIDVGKEFGVATNTFFKPPCVSVYRCGGCCNSEGLQCMNTSTSYLSKTLFEITVPLSQGPKPVTISFANHTSCRCMSKL
notes: range 103-215; Produced and purified as in Joukov et al. 1997; also called hVEGF-C; wild type VEGF-C
Kd (human VEGFR-3-Ig): 4.4 nM | koff (human VEGFR-3-Ig): 0.000605 s⁻¹ | kon (human VEGFR-3-Ig): 136000 M⁻¹ s⁻¹ | Kd [1]: 22 nM | koff [1]: 0.00123 s⁻¹ | kon [1]: 55000 M⁻¹ s⁻¹

B2: recombinant human VEGF-C156S (Thr103 to Ile225) (ligand)
chain: TEETIKFAAAHYNTEILKSIDNEWRKTQCMPREVCIDVGKEFGVATNTFFKPPSVSVYRCGGCCNSEGLQCMNTSTSYLSKTLFEITVPLSQGPKPVTISFANHTSCRCMSKLDVYRQVHSII
notes: also called hVEGF-C156S; VEGF-C56S
binding result [2]: no binding | Kd (human VEGFR-3-Ig): 115 nM | koff (human VEGFR-3-Ig): 0.0004 s⁻¹ | kon (human VEGFR-3-Ig): 3500 M⁻¹ s⁻¹
